Measured values reported in the nanobody polyreactivity screen of Harvey et al. (2022).

Test: yeast display, Sf9 membrane polyspecificity reagent, FACS + sequencing; frameworks hold sequencing errors
Method in brief: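 Galactose-induced (36–48 hours) yeast carrying a synthetic nanobody display library were exposed to 10% biotinylated, detergent-solubilized Sf9 membrane reagent at 4 °C for 1 hour. FACS followed streptavidin microbead enrichment, using low and high (top ~1%) gates for expression (anti-HA) and reagent binding (streptavidin). Colony PCR, MiSeq 2 × 250 sequencing and CDR-length filtering followed. Labels for polyreactivity reflect the gate of origin.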

Sequence	polyreactivity (PSR sort gate)
QVQLVESGGGLVQAGGSLRLSCAASGSTFGYNAMGWYRQAPGKERELVASITWSSGSTYYADSVKGRFTISRDNAKNTVYLQMNSLKPEDTAVYYCAADVEYWSYEFNYWGQGTQVTVSS	low polyreactivity
QVQLVESGGGLVQAGGSLRLSCAASGSTFNAYAMGWYRQAPGKERELVAAISYTGGSTYYADSVKGRFTISRDNAKNTVYLQMNSLKPDDTAVYYCARRQARKFYYWGQGTQVTVSS	high polyreactivity
QVQLVESGGGLVQAGGSLRLSCAASGGILRQNTMGWYRQAPGKETELVAAISSSGGRTYYADSVKGRFTISRDNAKNTVYLQMNSLKPEDTAVYYCARGYSWSVGYPRVHDMDYWGQGTQVTVSS	high polyreactivity
QVQLVESGGGLVQAGGSLRLSCAASGSTLTSNAIGWYRQAPGKERELVAAIRSGGSTNYADSVKGRFTISRDNAKNTVYLQMYSLNPEDTAVYYCNAEEKVTYSASYYWVYDAMDHWGQGTQVTVSS	low polyreactivity
QVQLVESGGGLVQAGGSLRLSCAASGRIFLRNAMGWYRQAPGKERELVATITSRGGSTYYADAVKGRFTISRDNAKNTVYLQMNSLKPVDTEVYDCAADPRRYRGFGYVYGGFYYWGQGTQVTVSS	low polyreactivity
QVQLVESGGGLVQAGGSLRLSCAASGFIFFRYSMGWYRQAPGKERELVATINLGGGSTYADSVKGRFTISRDNAKNTVYLQMTSLKPEDTAVYYSAADVANSIYDYWGQGTLVTVSS	low polyreactivity
QVQLVESGGGLVQAGGSLRLSCAASGSIFYYNTMGWYRQAPGKERELVAAITSTGRTNYADSVKGRFTISRDNAKNTVYLQMNSLKPEDSAVYYCAKRRFGDGDYWGQGTQVTVSS	low polyreactivity
QVQLVESGGGLVQAGGSLRLSCAASGFTFGLNAMGWYRQAPGKERELVAGISRNGGRTYYADSVKGRFTISRDNAKNTVYLQMNSLKPDDTAVYYCNKVVSTYWTKSRVQWRYSRYDYWGQGTQVTVSS	high polyreactivity
QVQLVESGGGLVQAGGSLRLSCAASGSTFTYYAMGWYRQAPGKERELVAAIDFSGTSTYYADSVKGRFTISRDNAKNTVYLQMNRLKPEDTAVYYCAASQSWYWGGAHDNGEFGYWGQGTQVTVSS	low polyreactivity
QVQHVESGGGLVQAGGSLRLSCAASGSTFPYYAMGWYRQAPGNERELVAAISNGVSTYYADSVKGRFTISRDNAKNTVYFHMNCLKQVDTAVYYCAGDFWITTRDIVKWWLYDYWGQGTQVTVSS	low polyreactivity
QVQLVEAGGGLVQAGGSLRLSCAASGLIIAKYAMGWYRQAPGKERELVAGITSGGGTSYADSVKGRFTISRDNAKNTVYLQMNSLKPEDTAVNYCNAVVVGWFYQYDYWGQGTQVTVSS	low polyreactivity
QVQLVESGGGLVQAGGSLRLSCAASGYTFSYYAMGWYRQAPGKERELVAAISWSGGSTYYADSVKGRFTISRDNAKNTVYLQMNSLKPEDTAFYYCAAKPWRGTLMRYGYWGQGTQVTVSS	high polyreactivity
QVQLVESGGVLVQAGGSLRLSCAASGFIFKKYAMGWYRQEPGKEMELVAAITIGGSTYYADSVKGRFTISRDNAKNTVYLQMNSLKPEDTAVYYCAAVQGKVRGGYYWGQGTQVTVSS	high polyreactivity
QVQLVESGGGLVQAGGSLRLSCAASGSILSPNAMGWYRQAPGKERELVADISSVGSTYYADSVKGRFTISRDNAKNTVYLQMNSLKPEDTAVYYCAAEFRATDGIGYDYWGQGTHVTVSS	low polyreactivity
QVQLVESGGGLVQAGGSLRLSCAASGSIFFYNTMGWYRQAPGKERELVAAISASGGRTYYADSVKGRFTISRDYSKNTVYLQMNSLKPEDTAVYYCAVRVPYRGYTRYDYWGHGTQVTVSS	high polyreactivity
QVQLVESGGGLVQAGGSLRLSCAASGFTITHYAMGWYRQAPGKERELVAAISTSGGSTYYADSVKGRFTISRDNAKNTVYLQMNSLKPEDTAVYYCAARRDGWVQWGYYYWGQGTQVTVSS	low polyreactivity

Sequence	polyreactivity (PSR sort gate)
QVQLVESGGGLVQAGGSLRLSCAASGRTFRRYAMGWYRQAPGKERELVAAISRGANTNYADSVKGRFTISRDNAKNTVYLQMNSLKPEDTAVYYCNAKQAGYYFAFGYWGQGTQVTVSS	high polyreactivity
QVQLVESGGGLVQAGGSLRLSCADSGSIIYYAMGWNRQAPGKEREFVAAITKSGGSTYYADSVKGRFTISRDNAKNTVYLQMNSLKPEDTAVYYCAARGTWAGFYYWGQGTQVTVSS	high polyreactivity
QVQLQESGGGLVQAGGSLRLSCAASGLILARNYMGWYRQAPGTERELVSGIGVGASTNYADSVKGRFTISRDNAKNTVYLQMNSLEPEDTAVYYCAVGDTVLGYHYYWGQGTQVTVSN	low polyreactivity
QVQLVESGGGLVQAGGSLRLSCAASGRTFPYYAMGWYRQAPGKERELVAAISRRGASTYYADSVKGRFTISRDNAKNTVYLQMNSLKPEDTAVYYCNAVYRGYYSGELDYWGQGTQVTVSS	high polyreactivity
QVQLVESGGGLVQAGGSLRLSCAASGFIFGTYAMGWYRQAPGKEWELVAAISSGGSTFYADSVKGRFTISRDNEKNTVYLQMYSLKPEDTAVYYCAKEGGTYRIFNYWGQGTQVTVSS	low polyreactivity
QVQLVESGGGLVQAGGSLSLSCDASGRIFPKYAMGWYRQAPGKEREMVAGITKLVGSTYYADSVKGRFTISRDNAKNTVYLQMNSLKPEDTAVYYCAADYSYLIDYLDPEKEGMDFWGQGTQVTVSS	low polyreactivity
QVQLVESGVGLVQAAGSLRLSCAASGFIFWVNAMGWYRQAPGKEREFVAAIRSSGGNTYYADSVKGRFTISRDNAKNTVYLQMNSLKPEDTAVYYCAADSVIVTYESDYWGQGTQVTVSS	low polyreactivity
QVQLVESGGGLVQAGGSLRLICAASGSIFGDTAMAWYSQAPGKERELVATISSSDASTYYADSVKGRFTSSRDNAKNTVYLQMNSVKREDSAVYYCAKEVNAGYHVWYDYWGEGTQVTVSS	low polyreactivity
QVQLVESGGGLVQAGGSLRLSCAASGFTFNSYAMGWYRQAPGKEREFVAAISRSGSNTNYADSVKGRFTISRDNAKNTVYLEMNSLKPEDTAVYYCAARVSSVTRSGFGYWGEGTQVTVSS	high polyreactivity
QEQLVETVVGLVQARGSLRLRSAASGITFRKYAMRWYRQAPGKERDFVAAITRGGRTYYADSVKGRFTISRENAKNTVYLQMNSLKPEDTAVYYCAACTVVYAGSTYLQPFDYWGQGTQVTVSS	high polyreactivity
QVQLVESGRGLVQAVGSLRLSSAASGSIFMWYTMGCYRQAPGKERELVAAISKSGGRTYYADSVKGRFTISRDNAKNTVYLQMNSMKPEDTAVYYCAKLYPYDSPVPDGHQFDYWGQGTQVTVSS	high polyreactivity
QVQLVESGGGLVQAGGSLRLSCAASGYTFPTYAMGWYRQAPGKERELVAAISIDDGITYYADSVKGRFTISRDNAKNTVYLQMNSLKPEDTAVYYCAADVGIEYDYWGQGTQVTVSS	high polyreactivity
QVQLVESGGGLVQAGGSLRLSCAASGITFYRYALGWYRQAPGKERELVAAISSSGGSTYYADSVKGRFTISRDNAKNTVYLQMNRLKPEDTAVYYCNAYYSVEYYYWGQGTQVTVSS	high polyreactivity
QVQLVESVGGLVQAGGSLRLSCAASGRIFGPYVMGWYRQAPGKERELVAAISTSGTSTYYADSVKGRFTISRDNAKNTDYLPMNSLKPEDTAVYYCAIRSGARHRLMDYWGQGTQVTVSS	low polyreactivity
QDQLVESGGGLVQAGGSLRLSCAPSGYFDLNALGWYRQAPGKERELVAANTDGGSTNYADSVKGRFTISRDNAKNTFYLQMNSLKPEDTAVYYCAADRGHTILHGGYWGQGTQVTVSS	low polyreactivity
